Assay results taken from patent US7737158B2, “Processes for regulating blood glucose in a mammal” (Washington University, priority 2005, dated 2010).
Entries after “also recorded” stand apart in the source; their conditions may differ.

Columns and labels:
mouse Nampt = mouse Nampt (Mus musculus, UniProt Q99KQ4); experiment: Enzyme-coupled fluorometric assay of immunoprecipitated Nampt-FLAG and recombinant Nampt; assay type: biochemical; design: expressed in transfected cells; host or cells: mouse NIH3T3 fibroblasts and mouse HIB-1B preadipocytes (differentiated), stably transfected with pCXN2-Nampt-FLAG; cell extracts or culture supernatant, anti-FLAG immunoprecipitates; conditions: for kcat: NMN synthesis, 55 min at 37° C., pH8.5, Nampt amount quantified by Western blotting
Experimental: For immunoprecipitation of intracellular Nampt, whole cell extracts were prepared with ice-cold immunoprecipitation (IP) buffer (phosphate buffer saline [pH 7.4], 0.5% NP-40, 1 mM EDTA,1 mM NaF, 10 μM Trichostatin A, 10 mM nicotinamide, 0.5 mM DTT, protease inhibitor cocktail (Roche)) and mixed with agarose beads conjugated with the mouse monoclonal M2 anti-FLAG antibody (F2426, Sigma) for 3-4 hours at 4° C. For immunoprecipitation of extracellular Nampt, HIB-1B culture supernatants were collected after incubating differentiated HIB-1B cells overnight with DMEM without fetal bovine serum but supplemented with 1 μg/ml insulin and 1 nM triodothyronine, filtered through a 0.22-μm PES membrane, concentrated with Amicon Ultra-15 columns (Millipore, MA), and mixed with anti-FLAG beads for 3-4 hours at 4° C. Immunoprecipitates were washed twice with the IP buffer and twice with PBS.
Immunoprecipitates on anti-FLAG beads were incubated in enzymatic reaction buffer (50 mM Tris-HCl (pH8.5), 100 mM NaCl, 0.25 mM Nicotinamide, 10 mM MgSO4, 1.5% Ethanol, 0.5 mM PRPP, 2.0 mM ATP) for 55 min at 37° C. After this reaction, mouse recombinant nicotinamide mononucleotide adenylyltransferase and yeast alcohol dehydrogenase (Sigma) were added at 10 μg/ml as the final concentration for each, and the mixture was incubated for 5 min at 37° C. Supernatants were then collected by spinning down anti-FLAG beads, and autofluorescence of NADH was measured in a Perkin Elmer LS 50B fluorometer (excitation: 340 nm; emission: 460 nm). Immunoprecipitates bound on anti-FLAG beads were extracted with Laemmli's sample buffer, boiled for 5 minutes, and analyzed by Western blotting with anti-Nampt antibodies. The amounts of Nampt used for enzymatic reactions were quantitated compared to the standards of mouse recombinant Nampt.
The immunoprecipitates from the HIB-1B culture supernatants were subjected to enzyme-coupled fluorometric assays (see Revollo et al., J. Biol. Chem., (2004)279, 50754-50763) to compare enzymatic activity of the intracellular and extracellular forms of Nampt. […] The Nampt enzymatic activity of the bacterially produced recombinant Nampt and the intracellular Nampt-FLAG® immunoprecipitated from HIB-1B and NIH3T3 cellular extracts were also measured and their kcat values calculated (see FIG. 16E). […] It is believed that a post-translational modification may be responsible for the altered enzymatic activity of extracellular Nampt produced by brown adipocytes. […] Despite the extensive mass spectrometric analysis of extracellular Nampt, the precise nature of the modification is currently unknown. Taken together, these findings provide strong evidence that Nampt functions as an NAD biosynthetic enzyme both intra- and extracellularly.

mouse Nmnat = target: T1, mouse Nmnat (Mus musculus, UniProt Q9EPA7); experiment: Enzyme-coupled fluorometric assay, kinetic characterization of recombinant Nmnat; assay type: biochemical
T1 construct: Polyclonal rabbit antisera were produced against the purified full-length His-tagged Nampt and Nmnat recombinant proteins; made in house; host or cells: E. coli BL21(DE3)pLysS
Experimental: Enzymatic activities of recombinant Nampt and Nmnat proteins were measured by an enzyme-coupled fluorometric assay (see, e.g., FIG. 4B). In this enzyme-coupled reaction, NAD is converted to NADH by alcohol dehydrogenase, and the fluorescence of NADH is detected in a fluorometer. To establish this assay system, optimal reaction conditions for Nmnat were initially examined by varying ATP and Mg^2+ concentrations and pH of the reaction buffer. The resultant reaction buffer for Nmnat contained 50 mM HEPES [pH 7.4], 0.02% BSA, 12 mM MgCl2, 2 mM ATP, 1.5% ethanol, and 30 μg/ml alcohol dehydrogenase to convert NAD to NADH. To determine the kinetic parameters for Nmnat, 30 ng of purified His-tagged Nmnat and varying concentrations of NMN were added to 1 ml of the reaction buffer. The reactions were run at 37° C. and quenched at six time points by the addition of 250 μl of 0.5 M EDTA. The production of NADH was measured by excitation at 340 nm and emission at 460 nm in a fluorometer. For kinetic characterization of Nampt, 500 ng of His-tagged Nampt and varying concentrations of nicotinamide were reacted at 37° C. in 100 μl of a buffer containing 50 mM Tris-HCl [pH 7.5], 0.02% BSA, 12 mM MgCl2, 2.5 mM ATP, 10 μg/ml His-tagged Nmnat, 0.4 mM phosphoribosyl pyrophosphate (PRPP), 1.5% ethanol, and 30 μg/ml alcohol dehydrogenase. NADH production was measured continuously in a fluorometer.
By using this enzyme-coupled fluorometric assay, kinetic parameters of purified recombinant mouse Nampt and Nmnat for nicotinamide and NMN, respectively, were determined (see, e.g., Table 1). The Lineweaver-Burk plots for these two enzymes are shown, for example, in FIGS. 11A and 11B. […] The Km and Vmax of mouse Nmnat are consistent with previously reported values for human NMNAT-1 (Emanuelli et al., J. Biol. Chem. (2001) 276, 406-412).

[1] = purified His-tagged recombinant mouse Nmnat, substrate NMN

B1: extracellular Nampt-FLAG®: C-terminally FLAG-tagged mouse Nampt (SEQ ID NO:7) secreted from differentiated HIB-1B cells, immunoprecipitated from culture supernatants (protein)
chain: MNAAAEAEFNILLATDSYKVTHYKQYPPNTSKVYSYFECREKKTENSKVRKVKYEETVFYGLQYILNKYLKGKVVTKEKIQEAKEVYREHFQDDVFNERGWNYILEKYDGHLPIEVKAVPEGSVIPRGNVLFTVENTDPECYWLTNWIETILVQSWYPITVATNSREQKKILAKYLLETSGNLDGLEYKLHDFGYRGVSSQETAGIGASAHLVNFKGTDTVAGIALIKKYYGTKDPVPGYSVPAAEHSTITAWGKDHEKDAFEHIVTQFSSVPVSVVSDSYDIYNACEKIWGEDLRHLIVSRSTEAPLIIRPDSGNPLDTVLKVLDILGKKFPVTENSKGYKLLPPYLRVIQGDGVDINTLQEIVEGMKQKKWSIENVSFGSGGALLQKLTRDLLNCSFKCSYVVTNGLGVNVFKDPVADPNKRSKKGRLSLHRTPAGNFVTLEEGKGDLEEYGHDLLHTVFKNGKVTKSYSFDEVRKNAQLNIEQDVAPHGGDYKDDDDK
modifications: C-terminal FLAG tag; Nampt-FLAG (tm) protein
Mouse Nampt
  kcat: 0.380 s⁻¹
Mouse Nampt; immunoprecipitated from culture supernatants of differentiated HIB-1B cells
  Nampt enzymatic activity: Robust activity; also recorded: has Nampt enzymatic activity
Mouse Nampt; versus bacterially produced recombinant Nampt
  kcat of extracellular Nampt-FLAG, fold higher than recombinant Nampt: ~11 fold
Mouse Nampt; versus intracellular Nampt-FLAG from NIH3T3 cells
  kcat of extracellular Nampt-FLAG, fold higher than intracellular Nampt-FLAG from NIH3T3 cells: ~5 fold
Mouse Nampt; versus intracellular Nampt-FLAG from differentiated HIB-1B cells
  kcat of extracellular Nampt-FLAG, fold higher than intracellular Nampt-FLAG from differentiated HIB-1B cells: ~2 fold

B2: Nmnat: Bacterially produced, His-tagged recombinant mouse nicotinamide/nicotinic acid mononucleotide adenylyltransferase (protein, UniProt Q9EPA7 1-285, looked up)
Nicotinamide/nicotinic acid …: MDSSKKTEVVLLACGSFNPITNMHLRLFELAKDYMHATGKYSVIKGIISPVGDAYKKKGLIPAHHRIIMAELATKNSHWVEVDTWESLQKEWVETVKVLRYHQEKLATGSCSYPQSSPALEKPGRKRKWADQKQDSSPQKPQEPKPTGVPKVKLLCGADLLESFSVPNLWKMEDITQIVANFGLICITRAGSDAQKFIYESDVLWRHQSNIHLVNEWITNDISSTKIRRALRRGQSIRYLVPDLVQEYIEKHELYNTESEGRNAGVTLAPLQRNAAEAKHNHSTL
modifications: His tag
notes: Bacterially produced, His-tagged recombinant mouse nicotinamide/nicotinic acid mononucleotide adenylyltransferase
Mouse Nmnat; isolated reactions
  synthesis of NAD from NMN and ATP: catalyzed the synthesis of NAD
Mouse Nmnat; [1]
  Vmax: 31.4 µmol/min/mg
  kcat: 20.0 s⁻¹
Mouse Nmnat; purified His-tagged recombinant mouse Nmnat, substrate NMN, 37° C.
  Km: 20.1 µM

B3: intracellular Nampt-FLAG® from NIH3T3 cells: FLAG-tagged mouse Nampt immunoprecipitated from NIH3T3 cellular extracts (protein, UniProt Q99KQ4 1-491, looked up)
Nicotinamide …: MNAAAEAEFNILLATDSYKVTHYKQYPPNTSKVYSYFECREKKTENSKVRKVKYEETVFYGLQYILNKYLKGKVVTKEKIQEAKEVYREHFQDDVFNERGWNYILEKYDGHLPIEVKAVPEGSVIPRGNVLFTVENTDPECYWLTNWIETILVQSWYPITVATNSREQKKILAKYLLETSGNLDGLEYKLHDFGYRGVSSQETAGIGASAHLVNFKGTDTVAGIALIKKYYGTKDPVPGYSVPAAEHSTITAWGKDHEKDAFEHIVTQFSSVPVSVVSDSYDIYNACEKIWGEDLRHLIVSRSTEAPLIIRPDSGNPLDTVLKVLDILGKKFPVTENSKGYKLLPPYLRVIQGDGVDINTLQEIVEGMKQKKWSIENVSFGSGGALLQKLTRDLLNCSFKCSYVVTNGLGVNVFKDPVADPNKRSKKGRLSLHRTPAGNFVTLEEGKGDLEEYGHDLLHTVFKNGKVTKSYSFDEVRKNAQLNIEQDVAPH
modifications: FLAG tag
notes: FLAG-tagged mouse Nampt immunoprecipitated from NIH3T3 cellular extracts
Mouse Nampt
  kcat: 0.082 s⁻¹

B4: intracellular Nampt-FLAG® from differentiated HIB-1B cells: FLAG-tagged mouse Nampt immunoprecipitated from differentiated HIB-1B cellular extracts (protein, UniProt Q99KQ4 1-491, looked up)
Nicotinamide …: MNAAAEAEFNILLATDSYKVTHYKQYPPNTSKVYSYFECREKKTENSKVRKVKYEETVFYGLQYILNKYLKGKVVTKEKIQEAKEVYREHFQDDVFNERGWNYILEKYDGHLPIEVKAVPEGSVIPRGNVLFTVENTDPECYWLTNWIETILVQSWYPITVATNSREQKKILAKYLLETSGNLDGLEYKLHDFGYRGVSSQETAGIGASAHLVNFKGTDTVAGIALIKKYYGTKDPVPGYSVPAAEHSTITAWGKDHEKDAFEHIVTQFSSVPVSVVSDSYDIYNACEKIWGEDLRHLIVSRSTEAPLIIRPDSGNPLDTVLKVLDILGKKFPVTENSKGYKLLPPYLRVIQGDGVDINTLQEIVEGMKQKKWSIENVSFGSGGALLQKLTRDLLNCSFKCSYVVTNGLGVNVFKDPVADPNKRSKKGRLSLHRTPAGNFVTLEEGKGDLEEYGHDLLHTVFKNGKVTKSYSFDEVRKNAQLNIEQDVAPH
modifications: FLAG tag
notes: FLAG-tagged mouse Nampt immunoprecipitated from differentiated HIB-1B cellular extracts
Mouse Nampt
  kcat: 0.182 s⁻¹

B5: extracellular Nampt: Extracellular Nampt from HIB-1B culture supernatants (protein)
chain: MNAAAEAEFNILLATDSYKVTHYKQYPPNTSKVYSYFECREKKTENSKVRKVKYEETVFYGLQYILNKYLKGKVVTKEKIQEAKEVYREHFQDDVFNERGWNYILEKYDGHLPIEVKAVPEGSVIPRGNVLFTVENTDPECYWLTNWIETILVQSWYPITVATNSREQKKILAKYLLETSGNLDGLEYKLHDFGYRGVSSQETAGIGASAHLVNFKGTDTVAGIALIKKYYGTKDPVPGYSVPAAEHSTITAWGKDHEKDAFEHIVTQFSSVPVSVVSDSYDIYNACEKIWGEDLRHLIVSRSTEAPLIIRPDSGNPLDTVLKVLDILGKKFPVTENSKGYKLLPPYLRVIQGDGVDINTLQEIVEGMKQKKWSIENVSFGSGGALLQKLTRDLLNCSFKCSYVVTNGLGVNVFKDPVADPNKRSKKGRLSLHRTPAGNFVTLEEGKGDLEEYGHDLLHTVFKNGKVTKSYSFDEVRKNAQLNIEQDVAPH
Mouse Nampt; extracellular Nampt from HIB-1B culture supernatants
  enzymatic activity after treatment with calf intestinal phosphatase (CIP): did not change
